± gives the standard deviation.
Assay: protein stability index of a GFP-peptide fusion (GPS, HEK-293T) (PSI 1-6); higher = more stable
Details: c terminus: a fixed tail appended
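Note: 24-mer peptide tiles fused after GFP, lentivirally expressed, FACS-sorted into six equal bins by GFP/DsRed ratio, decoded by Illumina sequencing, PSI is the read-weighted mean bin number.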

## PRSTVRQKVASNHSPFSSESRALS [TBX5]
treatment: DMSO
  protein stability index: 4.11 ± 0.25
treatment: MLN4924 1 uM, 8 h
  protein stability index: 4.15 ± 0.19

## NTQTEELNQQVVSSSEQLQCCQTE [KRT36]
treatment: DMSO
  protein stability index: 5.49 ± 0.28
treatment: MLN4924 1 uM, 8 h
  protein stability index: 5.51 ± 0.081

## EAPALGGGEYQEPGGNVKGVWAPP [BEX5]
treatment: DMSO
  protein stability index: 4.57 ± 0.37
treatment: MLN4924 1 uM, 8 h
  protein stability index: 4.71 ± 0.14

## EQQRIIAILLDAHHKTYDPTYSDF [VDR]
treatment: DMSO
  protein stability index: 2.48 ± 0.37
treatment: MLN4924 1 uM, 8 h
  protein stability index: 2.27 ± 0.15

## MEAYLPKKNGLYLSLVLGNVNVTL [TMEM120A]
treatment: DMSO
  protein stability index: 3.28 ± 0.49
treatment: MLN4924 1 uM, 8 h
  protein stability index: 3.44 ± 0.35

## IRKERKRLKLMQQNPAGELEGFQA [ATE1]
treatment: DMSO
  protein stability index: 3.87 ± 0.65
treatment: MLN4924 1 uM, 8 h
  protein stability index: 3.76 ± 0.32

## ESDDAFDTVTIPVPSEEPQESDQT [IQUB]
treatment: DMSO
  protein stability index: 5.69 ± 0.24
treatment: MLN4924 1 uM, 8 h
  protein stability index: 5.72 ± 0.3

## HQGEEEGPLDIWAVVKPGNTKEKI [FBXO34]
treatment: DMSO
  protein stability index: 4.6 ± 0.15
treatment: MLN4924 1 uM, 8 h
  protein stability index: 4.76 ± 0.27

## ARYGHLDMVEFLLEQCSASIEVGG [FEM1C]
treatment: DMSO
  protein stability index: 2.48 ± 0.5
treatment: MLN4924 1 uM, 8 h
  protein stability index: 2.14 ± 0.36

## GSILQFNPEVGIFVSIAQSEQESL [SMG5]
treatment: DMSO
  protein stability index: 3.07 ± 0.38
treatment: MLN4924 1 uM, 8 h
  protein stability index: 2.92 ± 0.18

## DLVKKIRDFHRKILTLPEMMRMFS [TRIM15]
treatment: DMSO
  protein stability index: 2.45 ± 0.46
treatment: MLN4924 1 uM, 8 h
  protein stability index: 2.35 ± 0.19

## SYIGLPYADHNYGARPPPTPPASP [KMT2E]
treatment: DMSO
  protein stability index: 4.66 ± 0.32
treatment: MLN4924 1 uM, 8 h
  protein stability index: 4.73 ± 0.24

## KKFRSSTSSSLGDKSEYLEMEEGV [KCNA4]
treatment: DMSO
  protein stability index: 4.6 ± 0.37
treatment: MLN4924 1 uM, 8 h
  protein stability index: 4.91 ± 0.28

## GRRLKSPQAPDPEEEENRDSQQPG [FANCE]
treatment: DMSO
  protein stability index: 5.44 ± 0.25
treatment: MLN4924 1 uM, 8 h
  protein stability index: 5.67 ± 0.27

## DTSFLPDRDREEEENRLREELRQE [FAM50A]
treatment: DMSO
  protein stability index: 5.17 ± 0.31
treatment: MLN4924 1 uM, 8 h
  protein stability index: 5.41 ± 0.18

## LEETKGRYCMQLSQIQGLIGSVEE [KRT16]
treatment: DMSO
  protein stability index: 3.91 ± 0.17
treatment: MLN4924 1 uM, 8 h
  protein stability index: 3.91 ± 0.2

## FHGTRQYKFDPKTKRILTLQKANS [MMP1]
treatment: DMSO
  protein stability index: 2.38 ± 0.5
treatment: MLN4924 1 uM, 8 h
  protein stability index: 2.6 ± 0.54

## YHTGKTPFVCPECGQPCSQKSGLI [ZNF649]
treatment: DMSO
  protein stability index: 2.53 ± 0.59
treatment: MLN4924 1 uM, 8 h
  protein stability index: 3.24 ± 0.58

## EARICRLLKHPNIVRLHDSISEEG [CAMK2D]
treatment: DMSO
  protein stability index: 3.56 ± 0.47
treatment: MLN4924 1 uM, 8 h
  protein stability index: 3.34 ± 0.28

## IGEEVRQLMEKLREKQLSHSLRAV [BEX1]
treatment: DMSO
  protein stability index: 2.68 ± 0.14
treatment: MLN4924 1 uM, 8 h
  protein stability index: 2.82 ± 0.22

## LGANEVLLVVGGFGSQQSPIDVVE [KLHL12]
treatment: DMSO
  protein stability index: 2.27 ± 0.28
treatment: MLN4924 1 uM, 8 h
  protein stability index: 2.25 ± 0.85

## EFFLEQTKKKGVKRPARLHTKPSQ [NOP53]
treatment: DMSO
  protein stability index: 3.66 ± 0.55
treatment: MLN4924 1 uM, 8 h
  protein stability index: 3.68 ± 0.5

## SFTTNEKAILEQNFRDLVRDLEKQ [TRIM29]
treatment: DMSO
  protein stability index: 3.97 ± 0.19
treatment: MLN4924 1 uM, 8 h
  protein stability index: 4.19 ± 0.2

## ITCLTCQGTGYIPTEQVNELVALI [TMEM106C]
treatment: DMSO
  protein stability index: 2.17 ± 0.3
treatment: MLN4924 1 uM, 8 h
  protein stability index: 2.2 ± 0.27

## ESFLAWKKRKRQEKIDKLEQDMER [ZC3H15]
treatment: DMSO
  protein stability index: 3.8 ± 0.2
treatment: MLN4924 1 uM, 8 h
  protein stability index: 4.22 ± 0.33

## SGDPPLSSNVSLSLFVLDQNDNAP [PCDHGA10]
treatment: DMSO
  protein stability index: 3.63 ± 0.09
treatment: MLN4924 1 uM, 8 h
  protein stability index: 3.59 ± 0.27

## NVLLFKKQNPGKFCLLSCGILTFL [RETREG3]
treatment: DMSO
  protein stability index: 2.43 ± 0.69
treatment: MLN4924 1 uM, 8 h
  protein stability index: 2.89 ± 0.73

## QTEKTTRVRTVLNEKQLHTLRTCY [ISL2]
treatment: DMSO
  protein stability index: 2.66 ± 0.24
treatment: MLN4924 1 uM, 8 h
  protein stability index: 2.8 ± 0.33

## MKNEKLLSKASEPKYQLFVPQLVT [RNF180]
treatment: DMSO
  protein stability index: 2.69 ± 0.3
treatment: MLN4924 1 uM, 8 h
  protein stability index: 2.82 ± 0.24

## AGGTSDDPEPSGPHLPRVMLPGVL [SCNN1D]
treatment: DMSO
  protein stability index: 4.14 ± 0.21
treatment: MLN4924 1 uM, 8 h
  protein stability index: 4.16 ± 0.13

## PLLHKDSASLEVVKKDHVALQVPR [CBY2]
treatment: DMSO
  protein stability index: 4.31 ± 0.095
treatment: MLN4924 1 uM, 8 h
  protein stability index: 4.3 ± 0.49

## FIMLLIGIVLPVFYLVYFKIQASG [LYSMD4]
treatment: DMSO
  protein stability index: 2.31 ± 0.22
treatment: MLN4924 1 uM, 8 h
  protein stability index: 2.01 ± 0.54

## AGGDVPHKTHQAPASASSLPGTGA [DYRK1B]
treatment: DMSO
  protein stability index: 4.89 ± 0.099
treatment: MLN4924 1 uM, 8 h
  protein stability index: 4.87 ± 0.28

## LQRASILDMRRDHEEQLQRLKLLK [FBF1]
treatment: DMSO
  protein stability index: 3.43 ± 0.48
treatment: MLN4924 1 uM, 8 h
  protein stability index: 3.72 ± 0.33

## LLRRDLGVGTSMEGASPLSERCQR [FANCE]
treatment: DMSO
  protein stability index: 4.01 ± 0.15
treatment: MLN4924 1 uM, 8 h
  protein stability index: 4.17 ± 0.083

## FEWTDSPNTAVSVHVSESSDDDEE [ACBD3]
treatment: DMSO
  protein stability index: 5.53 ± 0.22
treatment: MLN4924 1 uM, 8 h
  protein stability index: 5.56 ± 0.21

## GWGDCVWLPYLYTLQGLYLVYHPV [DHCR7]
treatment: DMSO
  protein stability index: 3.81 ± 0.74
treatment: MLN4924 1 uM, 8 h
  protein stability index: 3.25 ± 0.55

## YLTEGLLQFTILLSLIGVRVDVDT [NFE2L1]
treatment: DMSO
  protein stability index: 2.66 ± 0.15
treatment: MLN4924 1 uM, 8 h
  protein stability index: 3.25 ± 0.35

## RSVRVRLLLSFWKETDPLTFNFIS [PLD5]
treatment: DMSO
  protein stability index: 2.89 ± 0.71
treatment: MLN4924 1 uM, 8 h
  protein stability index: 2.54 ± 0.18

## KSQLGFLNVTNYCHLAHELRLSCM [DCAF4]
treatment: DMSO
  protein stability index: 3.04 ± 0.41
treatment: MLN4924 1 uM, 8 h
  protein stability index: 2.57 ± 0.36

## SKAPGSCDPGTDPCPEDASTPRPP [TLE6]
treatment: DMSO
  protein stability index: 5.59 ± 0.28
treatment: MLN4924 1 uM, 8 h
  protein stability index: 5.45 ± 0.081

## RLQGLEADCVRGPDGVCLSGGRGP [PBXIP1]
treatment: DMSO
  protein stability index: 4.4 ± 0.082
treatment: MLN4924 1 uM, 8 h
  protein stability index: 4.24 ± 0.32

## AAPWPMAFPYQYPPPPHPYNPHPG [DVL3]
treatment: DMSO
  protein stability index: 2.62 ± 0.26
treatment: MLN4924 1 uM, 8 h
  protein stability index: 2.85 ± 0.21

## IPYFITLGTELAERQGNGQQAMSL [KCNA3]
treatment: DMSO
  protein stability index: 3.03 ± 0.59
treatment: MLN4924 1 uM, 8 h
  protein stability index: 3.01 ± 0.37

## SSDKVRGIETLESVPIIGGFWETI [PHTF1]
treatment: DMSO
  protein stability index: 2.56 ± 0.32
treatment: MLN4924 1 uM, 8 h
  protein stability index: 2.65 ± 0.31
